From FireProtDB (doi:10.1021/acs.biochem.7b00571) come the findings set out here.

The conditions of the data set: Nicotiana tabacum; pH 7.2; 4 °C; Urea; Fluorescence; BES; reversible: yes; whole UniProt chain shown.

B1: Salicylic acid-binding protein 2 wild type, Q6RYA0 (protein)
chain: MKEGKHFVLVHGACHGGWSWYKLKPLLEAAGHKVTALDLAASGTDLRKIEELRTLYDYTLPLMELMESLSADEKVILVGHSLGGMNLGLAMEKYPQKIYAAVFLAAFMPDSVHNSSFVLEQYNERTPAENWLDTQFLPYGSPEEPLTSMFFGPKFLAHKLYQLCSPEDLALASSLVRPSSLFMEDLSKAKYFTDERFGSVKRVYIVCTEDKGIPEEFQRWQIDNIGVTEAIEIKGADHMAMLCEPQKLCASLLEIAHKYN
B1: the “denaturant midpoint (higher = more stable)” value turned out to be 2.2 M.
